Test results published in US6225121.

System: T1, Minos transposase (Minos-2) (Drosophila hydei)
T1 sequence: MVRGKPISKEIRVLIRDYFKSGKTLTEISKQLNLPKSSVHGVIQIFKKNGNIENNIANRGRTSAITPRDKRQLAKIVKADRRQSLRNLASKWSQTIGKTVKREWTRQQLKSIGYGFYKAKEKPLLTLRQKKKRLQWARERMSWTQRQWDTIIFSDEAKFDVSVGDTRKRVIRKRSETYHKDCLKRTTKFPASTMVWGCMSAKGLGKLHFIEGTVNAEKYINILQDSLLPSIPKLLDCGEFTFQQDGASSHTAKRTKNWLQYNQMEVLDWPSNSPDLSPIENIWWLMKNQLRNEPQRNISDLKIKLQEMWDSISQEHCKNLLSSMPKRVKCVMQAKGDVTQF
Experiment: cell_activity
Conditions: HeLa stable transfectants vs transposon alone, experiment 1 (18-fold and 14.5-fold in experiments 2 and 3); source Minos copy of helper not stated; binding not …

Substance: Minos transposon with both terminal inverted repeats, neo cargo (pMiLRneo)
- activity: 19 fold
